The target in this series is T1, Q2L, synthetic peptide Ac-LATLSHCIELMVKR-NH2 (L-amino acids).
T1 chain: LATLSHCIELMVKR

B1: Recombinant FLAG-tagged human GPBP (expressed in yeast, FLAG-affinity purified) (protein)
chain: MSDNQSWNSSGSEEDPETESGPPVERCGVLSKWTNYIHGWQDRWVVLKNNALSYYKSEDETEYGCRGSICLSKAVITPHDFDECRFDISVNDSVWYLRAQDPDHRQQWIDAIEQHKTESGYGSESSLRRHGSMVSLVSGASGYSATSTSSFKKGHSLREKLAEMETFRDILCRQVDTLQKYFDACADAVSKDELQRDKVVEDDEDDFPTTRSDGDFLHSTNGNKEKLFPHVTPKGINGIDFKGEAITFKATTAGILATLSHCIELMVKREDSWQKRLDKETEKKRRTEEAYKNAMTELKKKSHFGGPDYEEGPNSLINEEEFFDAVEAALDRQDKIEEQSQSEKVRLHWPTSLPSGDAFSSVGTHRFVQKPYSRSSSMSSIDLVSASDDVHRFSSQVEEMVQNHMTYSLQDVGGDANWQLVVEEGEMKVYRREVEENGIVLDPLKATHAVKGVTGHEVCNYFWNVDVRNDWETTIENFHVVETLADNAIIIYQTHKRVWPASQRDVLYLSVIRKIPALTENDPETWIVCNFSVDHDSAPLNNRCVRAKINVAMICQTLVSPPEGNQEISRDNILCKITYVANVNPGGWAPASVLRAVAKREYPKFLKRFTSYVQEKTAGKPILF
For the protein B1, the “GPBP autophosphorylation in vitro” value is reported as “efficiently inhibited GPBP autophosphorylation”.
